{
  "source": "paper PMC9781295",
  "key": {"[1]": {"biological_target": "GlyT1b L288C, N-terminal FLAG-tagged (human)"}, "[2]": {"biological_target": "GlyT1b L288C, N-terminal FLAG-tagged (human)", "assay": "cross-linking; oxidative cross-linking on intact HEK293 cells with copper phenanthroline (CuP, 1-100 μM) for 15 min at 22 °C in HEPES buffered saline, quenched with 10 mM N-ethylmaleimide; lysates in non-reducing sample buffer, anti-FLAG immunoblot; also with ZnCl2, NMDGCl, Na+, glycine, bitopertin or LY2365109 present, or 100 mM DTT on the lysates"}},
  "data": [
    {"substance": "GlyT1b L288C, N-terminal FLAG-tagged (natural protein)", "values": [
      {"measurement": "[3H]glycine uptake after CuP treatment (1 to 100 μM), transport activity remaining at the highest CuP concentration, % of control without CuP", "setting": "[1]", "result": "54 % of control"},
      {"measurement": "maximally increased % dimer fraction (CuP 1 to 100 μM)", "setting": "[2]", "result": 55.9, "unit": "%"},
      {"measurement": "stoichiometry N", "setting": "[2]", "result": 2}
    ]}
  ]
}
